This data set deals with the molecule itself. In words: H/D exchange followed by proton-detected solid-state NMR; pre-assembled reprotonated pili washed four times with 100% D2O buffer (10 mM sodium phosphate pH 7.0, 0.02% sodium azide), each with 4 h at room temperature; peak volumes of 3D (H)CANH spectra of redeuterated and reprotonated pili compared; 40 kHz MAS, 16.4 T, 17 °C; protection assigned to intra- or intermolecular contacts on the cryo-EM structure PDB 5OH0.

B1: FimA, type 1 pilus rod subunit (recombinant, assembled in vitro into type 1 pili) (natural protein, Escherichia coli, UniProt P04128 24-182, looked up)
chain: AATTVNGGTVHFKGEVVNAACAVDAGSVDQTVQLGQVRTASLAQEGATSSAVGFNIQLNDCDTNVASKAAVAFLGTAIDAGHTNVLALQSSAAGSATNVGVQILDRTGAALTLDGATFSSETTLNNGTNTIPFQARYFATGAATPGAANADATFKVQYQ
notes: FimA, major subunit of the type 1 pilus rod of Escherichia coli; Uniformly [2H,13C,15N]-labelled, proton back-exchanged at labile sites; Intramolecular disulfide Cys21-Cys61; In the pilus each subunit's N-terminal donor strand complements the neighbouring subunit; also called polymerized FimA; reprotonated pili
With B1, the binding result is “binds”.
